Source: the Human Domainome abundance scans (Beltran et al. 2025)
± gives the uncertainty stated by the source.

B1: KAT8 regulatory NSL complex subunit 2, residues 28 to 91; numbered along this chain, Q9H9L4 (parent)
chain: CAFTHRPCSHPRLEGQEFCIKHILEDKNAPFKQCSYISTKNGKRCPNAAPKPEKKDGVSFCAEH

Variants of: B1
Experiment: abundance fitness (aPCA) (normalised: wild type 0, dead -1); higher = more abundant; growth selection in yeast, the domain comes from the species named
Conditions: Homo sapiens
Work on CAFTHRPCSHPRLEGQEFCIKHILEDKNAPFKQCSYISTKNGKRCPNAAPKPEKKDGCSFCAEH [V58C] yielded an abundance fitness of 0.012 ± 0.064.
In the case of CAFTHRPCSHPRLEGQEFCIKHILEDKNAPFKQCSYISTKNGKRCPNAAPKPEKKDGTSFCAEH [V58T], the abundance fitness is reported as -0.1 ± 0.1.
CAFTHRPCSHPRLEGQEFCIKHILEDKNAPFKQCSYISTKNGKRCPNAAPKPEKKDGESFCAEH [V58E] gave an abundance fitness of -0.057 ± 0.092.
CAFTHRPCSHPRLEGQEFCIKHILEDKNAPFKQCSYISTKNGKRCPNAAPKPEKKDGKSFCAEH [V58K] gave an abundance fitness of -0.037 ± 0.14.
Variant CAFTHRPCSHPRLEGQEFCIKHILEDKNAPFKQCSYISTKNGKRCPNAAPKPEKKDGASFCAEH [V58A] has an abundance fitness of -0.018 ± 0.094.
Work on CAFTHRPCSHPRLEGQEFCIKHILEDKNAPFKQCSYISTKNGKRCPNAAPKPEKKDGSSFCAEH [V58S] yielded an abundance fitness of -0.088 ± 0.072.
Variant CAFTHRPCSHPRLEGQEFCIKHILEDKNAPFKQCSYISTKNGKRCPNAAPKPEKKDGISFCAEH [V58I] has an abundance fitness of -0.048 ± 0.074.
CAFTHRPCSHPRLEGQEFCIKHILEDKNAPFKQCSYISTKNGKRCPNAAPKPEKKDGQSFCAEH [V58Q] gave an abundance fitness of 0.019 ± 0.12.
CAFTHRPCSHPRLEGQEFCIKHILEDKNAPFKQCSYISTKNGKRCPNAAPKPEKKDGLSFCAEH [V58L] showed an abundance fitness of -0.046 ± 0.062.
For CAFTHRPCSHPRLEGQEFCIKHILEDKNAPFKQCSYISTKNGKRCPNAAPKPEKKDGFSFCAEH [V58F], the abundance fitness was -0.063 ± 0.08.
With CAFTHRPCSHPRLEGQEFCIKHILEDKNAPFKQCSYISTKNGKRCPNAAPKPEKKDGYSFCAEH [V58Y] the abundance fitness was -0.046 ± 0.075.
With CAFTHRPCSHPRLEGQEFCIKHILEDKNAPFKQCSYISTKNGKRCPNAAPKPEKKDGGSFCAEH [V58G] the abundance fitness was -0.138 ± 0.1.
For CAFTHRPCSHPRLEGQEFCIKHILEDKNAPFKQCSYISTKNGKRCPNAAPKPEKKDGMSFCAEH [V58M], the abundance fitness was -0.018 ± 0.11.
Work on CAFTHRPCSHPRLEGQEFCIKHILEDKNAPFKQCSYISTKNGKRCPNAAPKPEKKDGWSFCAEH [V58W] yielded an abundance fitness of -0.121 ± 0.11.
With CAFTHRPCSHPRLEGQEFCIKHILEDKNAPFKQCSYISTKNGKRCPNAAPKPEKKDGDSFCAEH [V58D] the abundance fitness was 0.009 ± 0.093.
Work on CAFTHRPCSHPRLEGQEFCIKHILEDKNAPFKQCSYISTKNGKRCPNAAPKPEKKDGNSFCAEH [V58N] yielded an abundance fitness of -0.178 ± 0.091.
CAFTHRPCSHPRLEGQEFCIKHILEDKNAPFKQCSYISTKNGKRCPNAAPKPEKKDGRSFCAEH [V58R] gave an abundance fitness of -0.082 ± 0.096.
CAFTHRPCSHPRLEGQEFCIKHILEDKNAPFKQCSYISTKNGKRCPNAAPKPEKKDGPSFCAEH [V58P] showed an abundance fitness of -0.098 ± 0.094.
In the case of CAFTHRPCSHPRLEGQEFCIKHILEDKNAPFKQCSYISTKNGKRCPNAAPKPEKKKGVSFCAEH [D56K], the abundance fitness is reported as 0.011 ± 0.32.
With CAFTHRPCSHPRLEGQEFCIKHILEDKNAPFKQCSYISTKNGKRCPNAAPKPEKKSGVSFCAEH [D56S] the abundance fitness was -0.067 ± 0.063.
In the case of CAFTHRPCSHPRLEGQEFCIKHILEDKNAPFKQCSYISTKNGKRCPNAAPKPEKKEGVSFCAEH [D56E], the abundance fitness is reported as -0.113 ± 0.21.
With CAFTHRPCSHPRLEGQEFCIKHILEDKNAPFKQCSYISTKNGKRCPNAAPKPEKKPGVSFCAEH [D56P] the abundance fitness was -0.096 ± 0.074.
Variant CAFTHRPCSHPRLEGQEFCIKHILEDKNAPFKQCSYISTKNGKRCPNAAPKPEKKAGVSFCAEH [D56A] has an abundance fitness of -0.111 ± 0.085.
For CAFTHRPCSHPRLEGQEFCIKHILEDKNAPFKQCSYISTKNGKRCPNAAPKPEKKWGVSFCAEH [D56W], the abundance fitness was -0.305 ± 0.25.
In the case of CAFTHRPCSHPRLEGQEFCIKHILEDKNAPFKQCSYISTKNGKRCPNAAPKPEKKHGVSFCAEH [D56H], the abundance fitness is reported as -0.055 ± 0.086.
In the case of CAFTHRPCSHPRLEGQEFCIKHILEDKNAPFKQCSYISTKNGKRCPNAAPKPEKKYGVSFCAEH [D56Y], the abundance fitness is reported as -0.148 ± 0.068.
For CAFTHRPCSHPRLEGQEFCIKHILEDKNAPFKQCSYISTKNGKRCPNAAPKPEKKNGVSFCAEH [D56N], the abundance fitness was -0.073 ± 0.077.
For CAFTHRPCSHPRLEGQEFCIKHILEDKNAPFKQCSYISTKNGKRCPNAAPKPEKKTGVSFCAEH [D56T], the abundance fitness was -0.057 ± 0.059.
CAFTHRPCSHPRLEGQEFCIKHILEDKNAPFKQCSYISTKNGKRCPNAAPKPEKKIGVSFCAEH [D56I] gave an abundance fitness of -0.2 ± 0.1.
Variant CAFTHRPCSHPRLEGQEFCIKHILEDKNAPFKQCSYISTKNGKRCPNAAPKPEKKQGVSFCAEH [D56Q] has an abundance fitness of -0.073 ± 0.098.
For CAFTHRPCSHPRLEGQEFCIKHILEDKNAPFKQCSYISTKNGKRCPNAAPKPEKKCGVSFCAEH [D56C], the abundance fitness was -0.067 ± 0.19.
CAFTHRPCSHPRLEGQEFCIKHILEDKNAPFKQCSYISTKNGKRCPNAAPKPEKKFGVSFCAEH [D56F] gave an abundance fitness of -0.137 ± 0.14.
For CAFTHRPCSHPRLEGQEFCIKHILEDKNAPFKQCSYISTKNGKRCPNAAPKPEKKRGVSFCAEH [D56R], the abundance fitness was -0.063 ± 0.086.
CAFTHRPCSHPRLEGQEFCIKHILEDKNAPFKQCSYISTKNGKRCPNAAPKHEKKDGVSFCAEH [P52H] gave an abundance fitness of -0.133 ± 0.07.
For CAFTHRPCSHPRLEGQEFCIKHILEDKNAPFKQCSYISTKNGKRCPNAAPKVEKKDGVSFCAEH [P52V], the abundance fitness was -0.083 ± 0.053.
Work on CAFTHRPCSHPRLEGQEFCIKHILEDKNAPFKQCSYISTKNGKRCPNAAPKEEKKDGVSFCAEH [P52E] yielded an abundance fitness of -0.066 ± 0.058.
In the case of CAFTHRPCSHPRLEGQEFCIKHILEDKNAPFKQCSYISTKNGKRCPNAAPKQEKKDGVSFCAEH [P52Q], the abundance fitness is reported as -0.061 ± 0.078.
In the case of CAFTHRPCSHPRLEGQEFCIKHILEDKNAPFKQCSYISTKNGKRCPNAAPKKEKKDGVSFCAEH [P52K], the abundance fitness is reported as -0.136 ± 0.069.
With CAFTHRPCSHPRLEGQEFCIKHILEDKNAPFKQCSYISTKNGKRCPNAAPKWEKKDGVSFCAEH [P52W] the abundance fitness was -0.053 ± 0.063.
Variant CAFTHRPCSHPRLEGQEFCIKHILEDKNAPFKQCSYISTKNGKRCPNAAPKCEKKDGVSFCAEH [P52C] has an abundance fitness of -0.188 ± 0.086.
Variant CAFTHRPCSHPRLEGQEFCIKHILEDKNAPFKQCSYISTKNGKRCPNAAPKFEKKDGVSFCAEH [P52F] has an abundance fitness of -0.01 ± 0.12.
Work on CAFTHRPCSHPRLEGQEFCIKHILEDKNAPFKQCSYISTKNGKRCPNAAPKAEKKDGVSFCAEH [P52A] yielded an abundance fitness of -0.072 ± 0.046.
